In US20060051842A1 (AMRAD OPERATIONS, published 2006):

Key:
[1] = biological target: T1, Nr1 and gp130 co-expressed in Ba/F3 cells (murine; mouse, UniProt Q00560 23-917); assay: competition with 125I-IL-11 on Ba/F3 cells expressing Nr1 and gp130; competitor of labelled IL-11
T1 construct: whole, on cells; also called Ba/F3 Nr1/gp130; Ba/F3 cells expressing the murine IL-11rα and murine gp130
T1 sequence 1: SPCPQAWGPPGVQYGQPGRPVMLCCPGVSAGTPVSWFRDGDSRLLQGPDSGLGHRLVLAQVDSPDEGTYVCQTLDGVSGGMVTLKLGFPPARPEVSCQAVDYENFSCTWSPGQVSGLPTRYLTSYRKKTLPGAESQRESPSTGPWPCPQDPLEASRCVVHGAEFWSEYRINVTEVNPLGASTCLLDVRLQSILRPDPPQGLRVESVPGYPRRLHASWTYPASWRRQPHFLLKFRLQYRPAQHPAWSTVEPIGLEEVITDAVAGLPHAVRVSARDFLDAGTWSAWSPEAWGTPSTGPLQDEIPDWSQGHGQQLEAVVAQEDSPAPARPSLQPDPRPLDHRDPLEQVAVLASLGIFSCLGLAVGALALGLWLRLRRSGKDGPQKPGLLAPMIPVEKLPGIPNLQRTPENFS
T1 sequence 2: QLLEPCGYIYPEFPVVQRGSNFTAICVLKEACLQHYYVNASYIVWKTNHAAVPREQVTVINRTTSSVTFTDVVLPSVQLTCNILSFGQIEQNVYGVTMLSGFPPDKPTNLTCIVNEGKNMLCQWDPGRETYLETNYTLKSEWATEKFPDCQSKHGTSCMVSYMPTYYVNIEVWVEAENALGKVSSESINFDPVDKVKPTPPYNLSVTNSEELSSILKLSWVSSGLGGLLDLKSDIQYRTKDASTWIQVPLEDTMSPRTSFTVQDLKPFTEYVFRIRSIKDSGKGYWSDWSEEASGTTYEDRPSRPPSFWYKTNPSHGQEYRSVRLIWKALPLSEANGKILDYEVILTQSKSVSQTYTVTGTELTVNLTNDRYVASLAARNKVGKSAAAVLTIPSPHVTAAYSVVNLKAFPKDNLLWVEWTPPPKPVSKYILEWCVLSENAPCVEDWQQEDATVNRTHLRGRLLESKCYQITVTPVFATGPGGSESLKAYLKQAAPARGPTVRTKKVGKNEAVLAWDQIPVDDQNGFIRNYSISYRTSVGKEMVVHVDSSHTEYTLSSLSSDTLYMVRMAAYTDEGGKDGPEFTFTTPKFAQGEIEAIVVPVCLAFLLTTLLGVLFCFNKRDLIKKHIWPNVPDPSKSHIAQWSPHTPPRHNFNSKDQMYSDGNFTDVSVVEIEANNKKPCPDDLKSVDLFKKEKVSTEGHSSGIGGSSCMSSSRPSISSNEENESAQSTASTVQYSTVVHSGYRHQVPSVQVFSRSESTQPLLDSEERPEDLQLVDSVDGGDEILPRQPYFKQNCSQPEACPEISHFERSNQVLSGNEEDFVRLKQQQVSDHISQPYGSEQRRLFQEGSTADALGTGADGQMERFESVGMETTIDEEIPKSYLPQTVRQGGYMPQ
Method: (§1) After 18 hours incubation on ice, bound and free IL-11 were separated by centrifugation through foetal calf serum. Bound and free ¹²⁵I-IL-11 were quantitated in a γ-counter and the amount of binding was expressed as a percentage of that observed in the absence of competitor.

[2] = biological target: T2, Nr1, gp130 and the LIF receptor co-expressed in Ba/F3 cells (murine; mouse; human, UniProt Q00560 23-917; P42702 45-1097); assay: competition with 125I-IL-11 on Ba/F3 cells expressing Nr1, gp130 and the LIF receptor
T2 construct: whole, on cells; also called Ba/F3 Nr1/gp130/LIF receptor
Method: as §1

[3] = biological target: T3, LIF receptor and gp130 expressed by parental M1 cells (mouse; murine, UniProt P42703 44-1092; Q00560 23-917); assay: binding of 125I-OSM to parental M1 cells
T3 construct: whole, on cells; Untransfected cells

[4] = biological target: T4, Nr1 (murine IL-11 receptor α-chain) expressed in Ba/F3 cells (murine, UniProt Q64385 24-432); assay: binding of 125I-OSM to transfected Ba/F3 cells
T4 construct: also called Ba/F3 cells expressing Nr1; Ba/F3 Nr1
T4 sequence: T1 sequence 1

[5] = biological target: T4, Nr1 (murine IL-11 receptor α-chain) …; assay: Scatchard analysis of 125I-IL-11 saturation binding to Ba/F3 cells expressing Nr1
Source text: FIGS. 4A-4D are graphical representations of scatchard analyses of saturation isotherms of IL-11 binding to various cell lines; (4A) parental Ba/F3 cells (●), Ba/F3 cells expressing Nr1 (◯), Ba/F3 cells expressing Nr1 and the LIF receptor (▪), (4B) Ba/F3 cells expressing the LIF receptor and gp130 (▪), Ba/F3 cells expressing Nr1 and gp130 (●), Ba/F3 cells expressing the Nr1, LIF receptor and gp130 (◯), (4C) parental M1 cells (▪), M1 cells expressing Nr1 (◯), and (4D) 3T3-L1 cells (●) were incubated with various concentrations of labelled IL-11 in the presence of absence of a 10-100-fold excess of unlabelled IL-11. After 18 hours incubation on ice, bound and free IL-11 were separated by centrifugation through foetal calf serum. Bound and free ¹²⁵I-IL-11 was quantitated in a γ-counter and the data was depicted as a Scatchard transformation. In each case data were normalised for cell number and shown as binding to 10⁶ cells.

[6] = biological target: T4, Nr1 (murine IL-11 receptor α-chain) …; assay: binding of 125I-LIF to transfected Ba/F3 cells
[7] = biological target: T3, LIF receptor and gp130 expressed by …; assay: binding of 125I-LIF to parental M1 cells
[8] = biological target: T3, LIF receptor and gp130 expressed by …; assay: binding of 125I-labelled human IL-11 to cells

T3 sequence (P42703 44-1092, one chain of several): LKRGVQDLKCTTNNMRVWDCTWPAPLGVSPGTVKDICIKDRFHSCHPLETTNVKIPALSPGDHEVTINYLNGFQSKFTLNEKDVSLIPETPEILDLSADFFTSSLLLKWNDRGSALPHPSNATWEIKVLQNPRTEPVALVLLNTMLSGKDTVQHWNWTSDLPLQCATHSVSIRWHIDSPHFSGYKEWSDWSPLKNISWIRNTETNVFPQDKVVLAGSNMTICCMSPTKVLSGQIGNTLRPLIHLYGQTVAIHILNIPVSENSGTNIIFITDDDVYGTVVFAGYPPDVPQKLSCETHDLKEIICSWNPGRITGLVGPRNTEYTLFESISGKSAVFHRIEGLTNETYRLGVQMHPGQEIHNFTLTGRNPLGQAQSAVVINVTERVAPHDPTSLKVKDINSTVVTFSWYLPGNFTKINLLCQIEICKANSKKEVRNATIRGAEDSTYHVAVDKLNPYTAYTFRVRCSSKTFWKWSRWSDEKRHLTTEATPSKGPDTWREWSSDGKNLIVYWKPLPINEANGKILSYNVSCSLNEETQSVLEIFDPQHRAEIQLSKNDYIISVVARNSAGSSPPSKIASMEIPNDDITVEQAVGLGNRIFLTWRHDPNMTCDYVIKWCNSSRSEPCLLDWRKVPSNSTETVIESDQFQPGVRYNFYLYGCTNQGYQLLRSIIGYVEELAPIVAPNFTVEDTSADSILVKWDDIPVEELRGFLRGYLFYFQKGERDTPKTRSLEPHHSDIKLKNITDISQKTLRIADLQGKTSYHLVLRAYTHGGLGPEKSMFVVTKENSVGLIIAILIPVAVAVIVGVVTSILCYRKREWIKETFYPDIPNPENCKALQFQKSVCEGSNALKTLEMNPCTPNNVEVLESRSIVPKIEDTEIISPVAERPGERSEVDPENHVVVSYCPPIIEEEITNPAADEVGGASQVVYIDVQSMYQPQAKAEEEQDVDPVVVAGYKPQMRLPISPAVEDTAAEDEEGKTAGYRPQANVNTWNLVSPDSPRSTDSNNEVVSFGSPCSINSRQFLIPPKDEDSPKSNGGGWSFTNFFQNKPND
T2 sequence (P42702 45-1097, one chain of several): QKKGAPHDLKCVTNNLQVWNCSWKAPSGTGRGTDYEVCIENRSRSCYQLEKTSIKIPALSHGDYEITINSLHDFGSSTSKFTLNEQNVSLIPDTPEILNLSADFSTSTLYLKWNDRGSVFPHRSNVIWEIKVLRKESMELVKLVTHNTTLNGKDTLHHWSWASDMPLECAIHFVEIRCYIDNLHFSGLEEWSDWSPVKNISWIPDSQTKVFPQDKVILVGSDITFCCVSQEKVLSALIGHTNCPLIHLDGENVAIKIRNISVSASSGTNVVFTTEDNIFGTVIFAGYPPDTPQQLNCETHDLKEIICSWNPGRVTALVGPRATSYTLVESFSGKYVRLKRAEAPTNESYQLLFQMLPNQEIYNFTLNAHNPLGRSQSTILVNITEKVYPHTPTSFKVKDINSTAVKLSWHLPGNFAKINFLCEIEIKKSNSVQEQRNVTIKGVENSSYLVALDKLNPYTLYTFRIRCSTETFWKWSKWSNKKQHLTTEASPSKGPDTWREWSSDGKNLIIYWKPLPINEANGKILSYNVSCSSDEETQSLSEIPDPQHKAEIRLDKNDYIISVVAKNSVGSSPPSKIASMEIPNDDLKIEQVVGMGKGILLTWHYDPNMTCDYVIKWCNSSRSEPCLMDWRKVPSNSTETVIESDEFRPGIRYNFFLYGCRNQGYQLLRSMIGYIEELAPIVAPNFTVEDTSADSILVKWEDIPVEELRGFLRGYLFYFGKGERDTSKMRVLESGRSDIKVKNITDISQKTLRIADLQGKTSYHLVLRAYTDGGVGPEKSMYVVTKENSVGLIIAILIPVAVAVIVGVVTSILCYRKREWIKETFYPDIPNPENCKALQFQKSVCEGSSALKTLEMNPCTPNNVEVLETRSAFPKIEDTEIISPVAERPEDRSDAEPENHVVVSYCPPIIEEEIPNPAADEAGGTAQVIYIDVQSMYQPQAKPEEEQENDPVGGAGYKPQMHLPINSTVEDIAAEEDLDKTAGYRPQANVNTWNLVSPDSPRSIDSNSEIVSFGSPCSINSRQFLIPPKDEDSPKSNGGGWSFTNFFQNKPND

B1: human OSM (produced using the pGEX system) (ligand, UniProt P13725 26-221, looked up)
chain: AAIGSCSKEYRVLLGQLQKQTDLMQDTSRLLDPYIRIQGLDVPKLREHCRERPGAFPSEETLRGLGRRGFLQTLNATLGCVLHRLADLEQRLPKAQDLERSGLNIEDLEKLQMARPNILGLRNNIYCMAQLLDNSDTAEPTKAGRGASQPPTPTPASDAFQRKLEGCRFLHGYHRFMHSVGRVFSKWGESPNRSRR
modifications: 125I-labelled where used as labelled ligand
B1: binds [1]; binds [2]; binds [3]. B1: no binding [4].

B2: IL-11 (purchased from PeproTech; used in Examples 7, 8, 12 and 13) (ligand)
chain: PGPPPGPPRVSPDPRAELDSTVLLTRSLLADTRQLAAQLRDKFPADGDHNLDSLPTLAMSAGALGALQLPGVLTRLRADLLSYLRHVQWLRRAGGSSLKTLEPELGTLQARLDRLLRRLQLLMSRLALPQPPPDPPAPPLAPPSSAWGGIRAAHAILGGLHLTLDWAVRGLLLLKTRL
modifications: The tracer form (125I-IL-11) was radio-iodinated with monoiodinated Bolton-Hunter reagent on amino groups. The positions are not stated and the letters are unchanged.
notes: Species ambiguous: 'Murine' may apply to IL-3 only; also called labelled IL-11
Work on B2 yielded a Kd [5] of about 0.01 nM.

B3: human LIF (produced using the pGEX system) (ligand)
chain: not shown
modifications: 125I-labelled where used as labelled ligand
B3: no binding [6]; binds [2]; binds [7].

B4: N-terminal flag human IL-11 (expressed in COS-M6 cells, used in ligand binding studies) (ligand)
chain: DYKDDDDKPGPPPGPPRVSPDPRAELDSTVLLTRSLLADTRQLAAQLRDKFPADGDHNLDSLPTLAMSAGALGALQLPGVLTRLRADLLSYLRHVQWLRRAGGSSLKTLEPELGTLQARLDRLLRRLQLLMSRLALPQPPPDPPAPPLAPPSSAWGGIRAAHAILGGLHLTLDWAVRGLLLLKTRL
modifications: radio-iodinated (125I) with Bolton-Hunter reagent
notes: mature; also called radio-labelled human IL-11
B4: no binding [8].
